In patent US20230331817A1 (The Regents of the University of California, priority 2020, published 2023):
Positions count from the first letter of the chain named. In names and notes the source's numbering stands. Blank lines part the entries; values can stand above or below the molecule they belong to.

Assays:
human plasmin [1] = target: T1, human plasmin (human, UniProt P00747 97-810); test: cell-based or functional assay
Plasma kallikrein (pKLK) = target: T2, Plasma kallikrein (pKLK) (Homo sapiens, UniProt P03952); test: Protease inhibition assay, plasma kallikrein; type: biochemical; conditions: 1 nM kallikrein
T2 construct: Plasma kallikrein (pKLK) was from Enzyme Research Laboratories; purchased Enzyme Research Laboratories (South Bend, IN)
Method: (§1) All reactions were carried out in TBS, pH 7.5 (50 mM Tris-HCL, pH 7.5, containing 100 mM NaCl), containing 0.1 mg bovine serum albumin/ml (TBS/BSA) and 2 mM Ca2+(TBS/BSA/Ca2+, pH 7.5). […] The inhibition constant, K* was determined using the nonlinear regression data analysis program Grafit.
(§2) Ki values were obtained by correcting for the effect of substrate according to Beith (38), using equation 2, where (S) is substrate concentration and KM is specific for each enzyme.

human FXIa = target: T3, human FXIa (Homo sapiens, UniProt P03951); test: Protease inhibition assay, factor XIa; type: biochemical; conditions: 1 nM FXIa
T3 construct: Purified human FXIa, thrombin (IIa) and plasmin were purchased; purchased Hematologic Technologies Inc (Essex Junction, VT)
Method: as §1, §2

FVIIa/sTF = target: T4, FVIIa/sTF (Homo sapiens, UniProt P08709); test: Protease inhibition assay, FVIIa/soluble tissue factor; type: biochemical; conditions: 20 nM FVIIa/sTF; read-out: Ki for Factor VIIa/soluble tissue factor
T4 construct: human factor VIIa (FVIIa) was prepared as described previously (34)
Method: as §1, §2

FXa = target: T5, FXa (Homo sapiens, UniProt P00742); test: Protease inhibition assay, factor Xa; type: biochemical; conditions: 1 nM FXa
T5 construct: FXa, factor Xa
Method: FIG. 2. Data from Equilibrium inhibition constants (Ki) of KD1Y11T/R15KL17R-KT with plasmin, FXIa, kallikrein (KLK), FVIIa/sTF and FXa. Percent activity of 3 nM human plasmin remaining in the presence of various concentrations (0.05 to 19.2 nM) of KD1Y11T/R15KL17R-KT (●) or BPTI (◯). And percent activity of 1 nM human FXIa (▴), 1 nM human kallikrein (●), 20 nM human FVIIa/sTF (Δ) and 1 nM FXa (♦) remaining in the presence of various concentrations (1 μM to 30 μM) of KD1Y11T/R15KL17R-KT.
Ki values for each inhibitor were calculated using the tight binding equations.

[2] = system: tPA-induced plasma clot fibrinolysis; test: Fibrinolysis (clot lysis) assay in normal pooled plasma; type: biochemical; conditions: human NPP
Method: The method of Sperzel and Huetter (40) was followed with minor modifications as outlined earlier (32,41). Briefly, IIa was used to initiate fibrin formation in NPP and the lysis of the formed clot (fibrinolysis) was induced by simultaneous addition of tPA. Clot formation and lysis were monitored with a Molecular Devices microplate reader (SPECTRAmax 190) measuring the optical density at 405 nm. […] Two hundred twenty-five μL of this mixture was then added to 25 μL IIa and tPA in TBS/BSA containing 25 mM CaCl2). In the 250 μL final volume, concentration of IIa was 0.15 μg/ml and that of tPA was 1 μg/ml. Under control conditions (zero tPA and zero test compound), OD405 increased immediately indicating clotting followed by an extremely slow decrease representing fibrinolysis. As clotting was almost complete after 5 minutes, fibrinolysis induced by tPA was evaluated as a relative decrease of OD405 up to 60 minutes.
Addition of thrombin (IIa) to human normal pooled plasma (NPP) caused fibrin formation, which is reflected by the increase in OD405 (black curve, FIGS. 3A and 3B). Simultaneous addition of tPA caused initial clot formation followed by dissolution of fibrin induced by tPA-mediated conversion of plasminogen to plasmin (black curve with closed circles, FIGS. 3A and 3B); the midpoint of fibrinolysis was ˜8 min in each case. Both antifibrinolytic agents inhibited fibrinolysis in a dose-dependent manner.

human plasmin [3] = target: T1, human plasmin; test: protease amidolytic inhibition, tight-binding equation
human plasmin [4] = target: T1, human plasmin; test: amidolytic inhibition of 3 nM plasmin, tight-binding equation
Method: as §1

human plasmin [5] = target: T1, human plasmin; test: residual activity of 3 nM plasmin (percent fractional activity by the legend; the axis is labelled % Pm Inhibition), substrate S-2251 [A]

T1 sequence (P00747 97-810 limits assumed): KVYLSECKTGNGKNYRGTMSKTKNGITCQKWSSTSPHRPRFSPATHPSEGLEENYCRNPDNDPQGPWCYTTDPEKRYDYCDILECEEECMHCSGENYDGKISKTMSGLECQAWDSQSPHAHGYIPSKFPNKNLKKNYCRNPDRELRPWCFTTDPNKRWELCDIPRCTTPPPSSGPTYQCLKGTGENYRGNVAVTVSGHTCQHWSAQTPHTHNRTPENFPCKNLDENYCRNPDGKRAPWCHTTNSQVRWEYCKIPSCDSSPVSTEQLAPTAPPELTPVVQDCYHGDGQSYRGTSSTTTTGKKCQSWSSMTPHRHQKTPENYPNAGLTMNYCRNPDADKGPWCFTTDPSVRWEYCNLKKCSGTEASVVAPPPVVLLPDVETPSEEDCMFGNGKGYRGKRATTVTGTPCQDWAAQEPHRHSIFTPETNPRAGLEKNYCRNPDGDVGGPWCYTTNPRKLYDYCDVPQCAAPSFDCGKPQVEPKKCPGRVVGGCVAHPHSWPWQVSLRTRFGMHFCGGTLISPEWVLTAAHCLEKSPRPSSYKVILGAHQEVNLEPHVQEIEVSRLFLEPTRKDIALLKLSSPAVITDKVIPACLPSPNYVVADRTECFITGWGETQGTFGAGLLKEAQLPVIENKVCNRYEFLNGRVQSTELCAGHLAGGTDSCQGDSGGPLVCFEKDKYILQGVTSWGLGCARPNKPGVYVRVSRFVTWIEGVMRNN
T2 sequence (P03952 20-390 limits assumed): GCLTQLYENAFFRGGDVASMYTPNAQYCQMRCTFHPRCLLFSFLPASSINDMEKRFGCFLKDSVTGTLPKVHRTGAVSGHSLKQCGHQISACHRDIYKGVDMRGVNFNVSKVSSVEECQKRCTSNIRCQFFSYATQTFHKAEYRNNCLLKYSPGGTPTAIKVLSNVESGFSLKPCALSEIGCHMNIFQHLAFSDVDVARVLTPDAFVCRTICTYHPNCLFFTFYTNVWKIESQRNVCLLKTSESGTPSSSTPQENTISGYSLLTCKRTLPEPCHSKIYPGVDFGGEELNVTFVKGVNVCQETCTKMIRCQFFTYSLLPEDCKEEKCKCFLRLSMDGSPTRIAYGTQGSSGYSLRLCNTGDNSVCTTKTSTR
T2 sequence (P03952 391-638 limits assumed): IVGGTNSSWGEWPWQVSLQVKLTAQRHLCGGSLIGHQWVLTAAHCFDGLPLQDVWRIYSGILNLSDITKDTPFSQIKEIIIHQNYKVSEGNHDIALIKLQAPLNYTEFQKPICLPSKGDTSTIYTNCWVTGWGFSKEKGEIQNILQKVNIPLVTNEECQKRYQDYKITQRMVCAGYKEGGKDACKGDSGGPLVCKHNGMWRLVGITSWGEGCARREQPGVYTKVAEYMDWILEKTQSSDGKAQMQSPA
T3 sequence (P03951 19-387 limits assumed): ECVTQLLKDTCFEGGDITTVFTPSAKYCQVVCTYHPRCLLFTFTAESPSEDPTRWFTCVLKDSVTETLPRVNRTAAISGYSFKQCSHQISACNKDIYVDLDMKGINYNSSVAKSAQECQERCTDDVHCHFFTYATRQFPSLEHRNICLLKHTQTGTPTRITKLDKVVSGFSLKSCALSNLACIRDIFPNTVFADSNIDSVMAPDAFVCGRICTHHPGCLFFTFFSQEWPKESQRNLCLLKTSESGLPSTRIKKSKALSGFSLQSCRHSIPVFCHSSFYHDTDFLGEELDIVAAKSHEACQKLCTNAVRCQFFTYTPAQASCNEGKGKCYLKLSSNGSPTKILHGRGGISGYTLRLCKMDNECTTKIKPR
T3 sequence (P03951 388-625 limits assumed): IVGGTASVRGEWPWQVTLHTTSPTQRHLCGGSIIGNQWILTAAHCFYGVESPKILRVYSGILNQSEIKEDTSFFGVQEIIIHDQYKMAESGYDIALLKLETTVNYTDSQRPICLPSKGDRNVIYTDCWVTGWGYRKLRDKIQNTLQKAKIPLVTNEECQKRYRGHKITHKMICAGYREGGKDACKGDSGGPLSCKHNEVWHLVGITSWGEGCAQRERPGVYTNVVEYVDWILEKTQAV
T4 sequence (P08709 213-466 limits assumed): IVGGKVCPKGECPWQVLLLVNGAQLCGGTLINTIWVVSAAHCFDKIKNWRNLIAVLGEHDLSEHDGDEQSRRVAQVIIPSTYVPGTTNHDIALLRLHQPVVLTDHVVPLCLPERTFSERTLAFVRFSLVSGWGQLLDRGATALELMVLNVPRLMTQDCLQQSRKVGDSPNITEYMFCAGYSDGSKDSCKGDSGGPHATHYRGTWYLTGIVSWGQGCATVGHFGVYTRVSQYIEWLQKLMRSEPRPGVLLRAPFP
T4 sequence (P08709 61-212 limits assumed): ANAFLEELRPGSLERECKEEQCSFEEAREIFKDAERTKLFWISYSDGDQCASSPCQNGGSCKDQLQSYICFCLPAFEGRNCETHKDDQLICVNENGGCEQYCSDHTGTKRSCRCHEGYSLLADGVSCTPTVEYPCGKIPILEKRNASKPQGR
T4 sequence (P13726 33-251 partner limits assumed): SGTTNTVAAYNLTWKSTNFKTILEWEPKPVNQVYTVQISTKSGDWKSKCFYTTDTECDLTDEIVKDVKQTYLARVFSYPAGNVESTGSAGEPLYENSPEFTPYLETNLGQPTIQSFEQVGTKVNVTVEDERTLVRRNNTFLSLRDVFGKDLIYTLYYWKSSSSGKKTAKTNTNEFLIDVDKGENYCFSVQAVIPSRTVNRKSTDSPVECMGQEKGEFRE
T5 sequence (P00742 235-488 limits assumed): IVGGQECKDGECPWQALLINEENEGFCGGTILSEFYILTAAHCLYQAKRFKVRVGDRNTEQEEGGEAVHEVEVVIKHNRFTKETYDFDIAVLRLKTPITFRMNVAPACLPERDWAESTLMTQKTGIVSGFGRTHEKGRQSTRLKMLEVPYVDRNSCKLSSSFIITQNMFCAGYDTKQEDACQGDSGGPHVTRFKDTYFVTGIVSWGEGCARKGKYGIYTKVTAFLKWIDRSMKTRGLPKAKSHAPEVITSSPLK
T5 sequence (P00742 41-179 limits assumed): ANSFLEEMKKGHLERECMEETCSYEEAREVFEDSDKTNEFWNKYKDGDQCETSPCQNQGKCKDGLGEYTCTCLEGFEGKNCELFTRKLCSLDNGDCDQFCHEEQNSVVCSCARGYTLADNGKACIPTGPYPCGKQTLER

TEG G, 1 µM inhibitor, whole blood + 1.5 µM plasmin (human plasmin [1]): 329 dyn/cm^2
TEG G, 2 µM inhibitor, whole blood + 1.5 µM plasmin (human plasmin [1]): 599 dyn/cm^2
TEG G, 3 µM inhibitor, whole blood + 1.5 µM plasmin (human plasmin [1]): 683 dyn/cm^2
TEG G, 5 µM inhibitor, whole blood + 1.5 µM plasmin (human plasmin [1]): 2320 dyn/cm^2
TEG G, 7.5 µM inhibitor, whole blood + 1.5 µM plasmin (human plasmin [1]): 2530 dyn/cm^2
TEG LY30, 1 µM inhibitor, whole blood + 1.5 µM plasmin (human plasmin [1]): 10.1%
TEG LY30, 2 µM inhibitor, whole blood + 1.5 µM plasmin (human plasmin [1]): 0%
TEG LY30, 3 µM inhibitor, whole blood + 1.5 µM plasmin (human plasmin [1]): 0%
TEG LY30, 5 µM inhibitor, whole blood + 1.5 µM plasmin (human plasmin [1]): 0%
TEG LY30, 7.5 µM inhibitor, whole blood + 1.5 µM plasmin (human plasmin [1]): 0%
TEG LY60, 1 µM inhibitor, whole blood + 1.5 µM plasmin (human plasmin [1]): 28.4%
TEG LY60, 2 µM inhibitor, whole blood + 1.5 µM plasmin (human plasmin [1]): 4.95%
TEG LY60, 3 µM inhibitor, whole blood + 1.5 µM plasmin (human plasmin [1]): 19.9%
TEG LY60, 5 µM inhibitor, whole blood + 1.5 µM plasmin (human plasmin [1]): 12.3%
TEG LY60, 7.5 µM inhibitor, whole blood + 1.5 µM plasmin (human plasmin [1]): 5%
TEG MA, 1 µM inhibitor, whole blood + 1.5 µM plasmin (human plasmin [1]): 6.45 mm
TEG MA, 2 µM inhibitor, whole blood + 1.5 µM plasmin (human plasmin [1]): 11.8 mm
TEG MA, 3 µM inhibitor, whole blood + 1.5 µM plasmin (human plasmin [1]): 12.3 mm
TEG MA, 5 µM inhibitor, whole blood + 1.5 µM plasmin (human plasmin [1]): 31.4 mm
TEG MA, 7.5 µM inhibitor, whole blood + 1.5 µM plasmin (human plasmin [1]): 33.9 mm
Ki (Plasma kallikrein (pKLK)): > 3000 nM
Ki (human FXIa): > 3000 nM
Ki (FVIIa/sTF): > 3000 nM
Ki (FXa): > 3000 nM
Ki (human plasmin [3]): 0.9 nM
Ki (human plasmin [4]): 0.9 nM
IC50 (read off the curve) (human plasmin [5]): ~3 nM
B1: KD1-L17R-KT (designed binder)
chain: MGSSHHHHHHSSGHIDDDDKNAEICLLPLDYGPCRARLLRYYYDRYTQSCRQFLYGGCEGNANNFYTWEACDDACWRIEK
notes: also called KD1SM; single mutant
Max OD405 ([2]; 0.5 μM inhibitor + tPA): 1.48 ± 0.11
OD405 at 60 min ([2]; 0.5 μM inhibitor + tPA): 0.85 ± 0.14
Fibrinolysis midpoint time ([2]; 0.5 μM inhibitor + tPA, 7 ± 1 without inhibitor): 10 ± 0.76 min
Fibrinolysis midpoint time ([2]; 1.0 μM inhibitor + tPA): 13 ± 0.5 min
Max OD405 ([2]; 1.0 μM inhibitor + tPA): 1.56 ± 0.10
OD405 at 60 min ([2]; 1.0 μM inhibitor + tPA): 0.87 ± 0.11
Fibrinolysis midpoint time ([2]; 3.0 μM inhibitor + tPA): 31 ± 1.75 min
Max OD405 ([2]; 3.0 μM inhibitor + tPA): 1.74 ± 0.05
OD405 at 60 min ([2]; 3.0 μM inhibitor + tPA): 0.80 ± 0.13
Fibrinolysis midpoint time ([2]; 4.0 μM inhibitor + tPA): 43 ± 1^ minutes
Max OD405 ([2]; 4.0 μM inhibitor + tPA): 1.62 ± 0.11
OD405 at 60 min ([2]; 4.0 μM inhibitor + tPA): 0.92 ± 0.05
Fibrinolysis midpoint time ([2]; 5.0 μM inhibitor + tPA): 55 ± 1.5 min
Max OD405 ([2]; 5.0 μM inhibitor + tPA): 1.69 ± 0.08
OD405 at 60 min ([2]; 5.0 μM inhibitor + tPA): 1.13 ± 0.06

Ki (human plasmin [4]): 0.59 nM
IC50 (read off the curve) (human plasmin [5]): 2 to 3 nM
B2: KD1-Y11T/L17R-KT (E. Coli) (designed binder)
chain: B1 chain with Y31T
notes: also called KD1DM; E. coli expressed KD1-Y11T/L17R-KT

TEG G, 1 µM inhibitor, whole blood + 1.5 µM plasmin (human plasmin [1]): 79 dyn/cm^2
TEG G, 2 µM inhibitor, whole blood + 1.5 µM plasmin (human plasmin [1]): 108 dyn/cm^2
TEG G, 3 µM inhibitor, whole blood + 1.5 µM plasmin (human plasmin [1]): 180 dyn/cm^2
TEG G, 5 µM inhibitor, whole blood + 1.5 µM plasmin (human plasmin [1]): 818 dyn/cm^2
TEG G, 7.5 µM inhibitor, whole blood + 1.5 µM plasmin (human plasmin [1]): 820 dyn/cm^2
TEG LY30, 1 µM inhibitor, whole blood + 1.5 µM plasmin (human plasmin [1]): 100%
TEG LY30, 2 µM inhibitor, whole blood + 1.5 µM plasmin (human plasmin [1]): 100%
TEG LY30, 3 µM inhibitor, whole blood + 1.5 µM plasmin (human plasmin [1]): 100%
TEG LY30, 5 µM inhibitor, whole blood + 1.5 µM plasmin (human plasmin [1]): 6.5%
TEG LY30, 7.5 µM inhibitor, whole blood + 1.5 µM plasmin (human plasmin [1]): 0%
TEG LY60, 1 µM inhibitor, whole blood + 1.5 µM plasmin (human plasmin [1]): 100%
TEG LY60, 2 µM inhibitor, whole blood + 1.5 µM plasmin (human plasmin [1]): 100%
TEG LY60, 3 µM inhibitor, whole blood + 1.5 µM plasmin (human plasmin [1]): 100%
TEG LY60, 5 µM inhibitor, whole blood + 1.5 µM plasmin (human plasmin [1]): 22.4%
TEG LY60, 7.5 µM inhibitor, whole blood + 1.5 µM plasmin (human plasmin [1]): 0%
TEG MA, 1 µM inhibitor, whole blood + 1.5 µM plasmin (human plasmin [1]): 1.45 mm
TEG MA, 2 µM inhibitor, whole blood + 1.5 µM plasmin (human plasmin [1]): 2.23 mm
TEG MA, 3 µM inhibitor, whole blood + 1.5 µM plasmin (human plasmin [1]): 3.49 mm
TEG MA, 5 µM inhibitor, whole blood + 1.5 µM plasmin (human plasmin [1]): 13.9 mm
TEG MA, 7.5 µM inhibitor, whole blood + 1.5 µM plasmin (human plasmin [1]): 11.7 mm
Ki (human plasmin [4]): 6 nM
IC50 (read off the curve) (human plasmin [5]): ~9 nM
B3: KD1-WT (other)
chain: DAAQEPTGNNAEICLLPLDYGPCRALLLRYYYDRYTQSCRQFLYGGCEGNANNFYTWEACDDACWRIEKVPKV
notes: also called Wild-type KD1; E. coli expressed KD1-WT (IIa cleavage site); not shown: N-terminal residues left from the IIa (thrombin) cleavage site
